Assay results as given in the RNAGym collection of RNA variant scans (doi:10.7554/elife.80360).

B1: Hairpin Ribozyme (parent)
chain: GUCCUCUUUCACGUGCGCGUGAAAGAGAGAAGUGAACCAGAGAAACACACGUUGUGGUAUAUUACCUGGUA

Variants of: B1
Test: self-cleavage, relative activity (ratio to wild type); higher = more cleavage; co-transcriptional

Row | Variant | self-cleavage
1 | A11G G17U | 0.823
2 | A11G G17C | 0.571
3 | A11C G27A | 0.403
4 | A11C G27C | 0.165
5 | C10G U60G | 0.442
6 | C10U | 0.775
7 | C10G | 0.737
8 | A11C A59G | 0.161
9 | A11C A59U | 0.112
10 | A11C A59C | 0.0956
11 | C12A A30G | 0.206
12 | C12A A30U | 0.172
13 | C10G A64G | 0.397
14 | C10G A64U | 0.199
15 | C10U U33C | 0.0734
16 | C10U U33G | 0.196
17 | A11U A61G | 0.176
18 | A11G C37A | 0.149
19 | A11G C37G | 0.34
20 | C10U G15A | 0.722
21 | C10U G15C | 0.825
22 | C10U G15U | 0.843
23 | A11C G32C | 0.0648
24 | C10G A36C | 0.498

Row | Variant | self-cleavage
25 | C10U C12G | 0.612
26 | A11G A36U | 0.512
27 | A11U A22G | 0.755
28 | A11U A49G | 0.558
29 | C10U U58A | 0.533
30 | A11C A23U | 0.6
31 | A11C A23G | 0.642
32 | A11C A23C | 0.622
33 | C10G C65U | 0.307
34 | A11C U55G | 0.249
35 | A11C G57A | 0.116
36 | A11C U52G | 0.857
37 | C10U U52A | 0.761
38 | A11U A44U | 0.22
39 | A11U A44G | 0.144
40 | A11G G57A | 0.159
41 | A11G G57U | 0.392
42 | A11U A59G | 0.0747
43 | A11C U20C | 1.02
44 | C10U G54C | 0.444
45 | A11C A35C | 0.764
46 | C10U A44G | 0.117
47 | C10U A44U | 0.187
48 | A11U A39U | 0.309

Row | Variant | self-cleavage
49 | A11U A39C | 0.495
50 | A11G C66U | 0.619
51 | C10G U55C | 0.16
52 | A11G A28G | 1.11
53 | A11U A43U | 0.078
54 | C10U A23G | 0.551
55 | C10U A23U | 0.652
56 | C10U A23C | 0.637
57 | C10G C50G | 0.142
58 | C10G C50U | 0.344
59 | A11C C37U | 0.494
60 | A11C C37G | 0.435
61 | A11C C37A | 0.37
62 | C10A U67C | 0.188
63 | C10A U67G | 0.171
64 | A11U A35G | 0.867
65 | A11U A35C | 0.86
66 | A11G A24U | 0.968
67 | A11G A24G | 0.792
68 | A11U U52G | 0.362
69 | A11U C50U | 0.36
70 | A11U A41G | 0.495
71 | C10U U67C | 0.206
72 | C10U G29A | 0.158

Row | Variant | self-cleavage
73 | C10G U58G | 0.441
74 | C10U G68U | 0.189
75 | A11C U14G | 0.661
76 | A11U U70C | 0.848
77 | C10G A71U | 0.589
78 | C10G A71G | 0.705
79 | A11U A30U | 0.133
80 | C10U U62G | 0.0799
81 | C10U A26G | 0.722
82 | A11C C50A | 0.288
83 | C10U G51C | 0.783
84 | A11C A28G | 0.951
85 | C10U U20C | 0.722
86 | C10G A45C | 0.114
87 | C10G A45G | 0.118
88 | C10G A45U | 0.136
89 | A11C C66A | 0.317
90 | A11C C66U | 0.408
91 | C10G A41G | 0.734
92 | C10G A41U | 1.09
93 | C10G A41C | 0.777
94 | C10G C46G | 0.162
95 | C10U A71U | 0.706
96 | C10U A71C | 1.23

Row | Variant | self-cleavage
97 | C10G C66A | 0.0906
98 | A11G U14C | 0.952
99 | A11U A31G | 0.464
100 | A11U A31C | 0.152
101 | A11U C48G | 0.0875
102 | A11C G56A | 0.15
103 | A11G G13A | 0.924
104 | C12A A39C | 0.397
105 | A11C C12A | 0.636
106 | A11C G34A | 1.01
107 | A11C G34C | 1.07
108 | A11G A59C | 0.17
109 | A11U G51U | 0.805
110 | A11U G51A | 0.799
111 | C10U A22U | 0.373
112 | C10U A22G | 0.635
113 | C10U G19U | 0.672
114 | C10G G69C | 0.23
115 | A11G A71G | 0.814
116 | C10G G40U | 0.161
117 | C10G G40A | 0.194
118 | C10U U70A | 0.704
119 | C10U U70C | 0.637
120 | C12A A47G | 0.0872

Row | Variant | self-cleavage
121 | C12A A47U | 0.132
122 | A11G C50U | 0.321
123 | A11C A36C | 0.471
124 | C10U A59U | 0.124
125 | C10U C37A | 0.364
126 | C10U C37G | 0.299
127 | A11G C48U | 0.144
128 | A11G G15U | 0.857
129 | A11G G15A | 0.896
130 | C10U C48U | 0.209
131 | C10G A61G | 0.233
132 | A11U U53A | 0.679
133 | C10G G32C | 0.207
134 | C10G G32A | 0.163
135 | C10G C16G | 0.559
136 | A11U G68U | 0.292
137 | A11U G68C | 0.13
138 | C10U A43U | 0.0631
139 | C10G C18U | 0.842
140 | A11U U55G | 0.339
141 | A11U U55C | 0.118
142 | C10G A47U | 0.175
143 | C10G A47G | 0.177
144 | A11U G29C | 0.0923

Row | Variant | self-cleavage
145 | A11U G29U | 0.0998
146 | A11G G40C | 0.188
147 | A11G G40A | 0.291
148 | C10U A36U | 0.487
149 | A11U A64C | 0.175
150 | A11U A64U | 0.152
151 | A11U A64G | 0.588
152 | A11G A44U | 0.137
153 | C10G U52A | 0.705
154 | C10G U52C | 0.536
155 | C10G A22G | 0.649
156 | A11U C18U | 1.12
157 | A11U C18G | 0.812
158 | C10U C65G | 0.284
159 | A11U C46U | 0.0973
160 | A11C A22U | 0.554
161 | A11G A61G | 0.166
162 | A11G A61U | 0.136
163 | C10G U53G | 0.632
164 | A11G U60G | 0.565
165 | A11C G42A | 0.278
166 | A11G U20C | 0.857
167 | A11G U20G | 0.982
